Assay results taken from PMC7393090.

Target: tau Venus BiFC constructs (UniProt P10636)
Experiment: split reporter (BiFC, NanoBiT); Venus BiFC; co-culture of HEK293 cells transfected with the VN construct and cells transfected with the VC construct (50,000 cells each per ml, 48 h); flow cytometry, cells above 120 fluorescence units are positive; also run after treatment with anle138b 1 µM, EGCG 0.1 µM, fulvic acid 37 µM or dynasore 10 µM

For “tau Venus BiFC constructs (from UniProt P10636 1-758) (natural protein)”, the percent of BiFC positive cells (co-culture) was 3.9%.
